Assay results: patent US20020193571A1 (published 2002)

Biological target: T1, human WSX receptor (hWSXR), antigen of the phage antigen-binding ELISA (human, UniProt P48357 22-841)
T1 construct: both panning antigens hold the ECD; also called huWSXR
T1 sequence: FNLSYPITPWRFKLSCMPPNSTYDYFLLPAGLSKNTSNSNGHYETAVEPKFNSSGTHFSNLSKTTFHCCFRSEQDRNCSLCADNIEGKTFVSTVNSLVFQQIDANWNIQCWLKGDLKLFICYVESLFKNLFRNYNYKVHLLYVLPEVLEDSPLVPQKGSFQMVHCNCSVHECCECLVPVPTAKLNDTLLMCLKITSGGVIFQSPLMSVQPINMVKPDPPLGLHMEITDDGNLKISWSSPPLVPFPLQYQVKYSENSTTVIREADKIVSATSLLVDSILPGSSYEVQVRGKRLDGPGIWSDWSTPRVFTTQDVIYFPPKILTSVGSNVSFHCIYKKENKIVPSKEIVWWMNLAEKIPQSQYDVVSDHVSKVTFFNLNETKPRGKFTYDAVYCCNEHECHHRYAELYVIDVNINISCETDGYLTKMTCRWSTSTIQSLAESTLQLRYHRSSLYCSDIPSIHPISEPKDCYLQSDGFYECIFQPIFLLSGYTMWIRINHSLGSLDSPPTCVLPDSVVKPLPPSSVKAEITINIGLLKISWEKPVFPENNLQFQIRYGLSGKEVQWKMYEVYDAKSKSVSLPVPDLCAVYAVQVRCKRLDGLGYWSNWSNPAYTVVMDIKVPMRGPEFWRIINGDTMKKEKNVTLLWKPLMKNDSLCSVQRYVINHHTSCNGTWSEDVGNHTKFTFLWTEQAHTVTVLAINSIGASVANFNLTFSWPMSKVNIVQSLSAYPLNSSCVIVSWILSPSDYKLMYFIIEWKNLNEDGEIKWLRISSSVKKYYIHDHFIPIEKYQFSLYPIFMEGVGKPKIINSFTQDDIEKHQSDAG
Experiment: phage antigen-binding ELISA

B1: agonist antibody clone #3 scFv (scFv)
scFv: EVQLVQSGAEVKKPGASVKVSCKASGYTFTGYYMYWVRQAPGQGLEWMGWINPNSGGTNYAQKFQGRVTMTRDTSIGTAYMELSRLSSDDTAVYYCARDRYYGSSAYHRGSYYMDVWGRGTLVTVSSGGGGTGGGGSGGGGSSELTQDPAVSVALGQTVRITCQGDSLRSYYASWYQQKPGQAPVLVIYGKNNRPSGIPDRFSGSSSGNTASLTITGAQAEDEADYYCNSRDSSGNHVVFGGGTKLTVL
notes: Human scFv from a phage library
B1: binds.

B2: agonist antibody clone #17 scFv (scFv)
scFv: QVRLQQSGGGLVQPGRSLRLSCAASGFTFDDYAMHWVRQAPGKGLEWVSGMTWNSGSIGYADSVKGRFTISRDNAKNSLYLQMNSLRAEDTAVYYCAREPHNTDAFDIWGRGTLVTVSSGGGGPGGGGSGGGGSDVVMTQSPSFLSAFVGDTITITCRASQGIYNYLAWYQQKPGKAPKLLIYAASTLQSGVPSRFSGSGSGTEFTLTISSLQPEDFGTYYCQQLISYPLTFGGGTKVEIK
notes: Human scFv from a phage library; tested as scFv phage and as soluble scFv
B2: binds.
